For four molecules, Kd results are on record in PMC8809517, “Cofactor-independent RNA editing by a synthetic S-type PPR protein”.

What all share (assay): high-throughput RNA pulldown from lysate on Ni-NTA beads; HRP: 50 mM Tris pH 8, 150 mM NaCl, 1 mM beta-mercaptoethanol, 50 ug/ml BSA, 3 ug/ml yeast RNA, 0.5% heparin; ITC and FP: Tris pH 8, 200 mM KCl, 5% glycerol; MST: 50 mM Tris pH 8, 200 mM NaCl, 1 mM DTT, BSA, heparin, 0.05% Tween 20
What all share (conditions): tags: N-terminal His-eGFP

The target in series [1] is T1, GFP-9S library array, motif 4 ND N98G;D124H (synthetic construct, N98G;D124H).
T1 chain: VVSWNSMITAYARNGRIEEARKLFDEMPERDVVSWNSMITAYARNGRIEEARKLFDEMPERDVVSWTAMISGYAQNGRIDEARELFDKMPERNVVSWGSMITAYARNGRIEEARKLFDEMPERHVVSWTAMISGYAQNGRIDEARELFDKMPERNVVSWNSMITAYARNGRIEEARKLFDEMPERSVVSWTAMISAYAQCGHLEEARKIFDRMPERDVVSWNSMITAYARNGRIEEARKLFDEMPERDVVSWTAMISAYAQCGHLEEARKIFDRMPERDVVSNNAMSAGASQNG

The target of series [2] is T2, GFP-9S library array, motif 4 ND N98S;D124W (synthetic construct, N98S;D124W).
T2 chain: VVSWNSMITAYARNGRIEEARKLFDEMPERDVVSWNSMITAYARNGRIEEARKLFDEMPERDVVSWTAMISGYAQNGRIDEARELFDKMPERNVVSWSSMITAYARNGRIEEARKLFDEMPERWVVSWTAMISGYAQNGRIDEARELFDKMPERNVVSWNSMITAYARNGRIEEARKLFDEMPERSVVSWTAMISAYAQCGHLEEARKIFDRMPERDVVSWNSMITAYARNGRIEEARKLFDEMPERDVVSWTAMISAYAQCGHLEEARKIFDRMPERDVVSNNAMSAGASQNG

Series [3] addresses T3, GFP-9S library array, motif 4 ND N98S;D124G (synthetic construct, N98S;D124G).
T3 chain: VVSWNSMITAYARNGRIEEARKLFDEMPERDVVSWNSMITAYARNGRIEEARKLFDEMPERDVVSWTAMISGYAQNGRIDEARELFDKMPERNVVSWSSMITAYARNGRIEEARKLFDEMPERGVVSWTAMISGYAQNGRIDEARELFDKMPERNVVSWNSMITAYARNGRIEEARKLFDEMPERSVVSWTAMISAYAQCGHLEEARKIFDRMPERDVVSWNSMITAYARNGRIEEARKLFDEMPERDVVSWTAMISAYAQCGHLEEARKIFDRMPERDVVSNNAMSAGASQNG

The target of series [4] is T4, GFP-9S library array, motif 4 ND N98Q;D124L (synthetic construct, N98Q;D124L).
T4 chain: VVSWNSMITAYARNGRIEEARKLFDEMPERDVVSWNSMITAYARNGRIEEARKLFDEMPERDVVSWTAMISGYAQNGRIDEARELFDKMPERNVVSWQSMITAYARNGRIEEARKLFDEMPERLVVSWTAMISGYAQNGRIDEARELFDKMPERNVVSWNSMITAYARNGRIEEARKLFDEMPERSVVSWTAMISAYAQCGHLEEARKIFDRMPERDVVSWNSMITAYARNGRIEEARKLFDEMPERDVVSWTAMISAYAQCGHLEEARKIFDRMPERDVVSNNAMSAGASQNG

The target of series [5] is T5, GFP-9S library array, motif 4 ND N98T;D124Q (synthetic construct, N98T;D124Q).
T5 chain: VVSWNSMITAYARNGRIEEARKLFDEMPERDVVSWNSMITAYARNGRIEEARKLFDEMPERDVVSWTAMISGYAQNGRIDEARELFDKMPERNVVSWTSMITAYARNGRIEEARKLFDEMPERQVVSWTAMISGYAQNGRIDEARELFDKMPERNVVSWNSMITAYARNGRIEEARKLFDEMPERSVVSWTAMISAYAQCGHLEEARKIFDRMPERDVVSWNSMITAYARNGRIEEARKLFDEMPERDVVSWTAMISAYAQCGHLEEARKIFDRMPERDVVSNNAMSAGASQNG

B1: Cy5-rpoA-G (ssRNA)
RNA: AUUAGACGUGA
Turning to B1, the Kd is 0.108 µM in series [1] (label: 5' Cy5); 0.126 µM in series [2] (label: 5' Cy5); 0.157 µM in series [3] (label: 5' Cy5); 0.0841 µM in series [4] (label: 5' Cy5); 0.128 µM in series [5] (label: 5' Cy5).

B2: Cy5-rpoA (ssRNA)
RNA: AUUACACGUGA
Take B2: the Kd in series [1] (label: 5' Cy5) is 0.0911 µM; in series [2] (label: 5' Cy5) it was 0.0907 µM; in series [3] (label: 5' Cy5) it was 0.181 µM; in series [4] (label: 5' Cy5), 0.122 µM; in series [5] (label: 5' Cy5), 0.157 µM.

B3: IR-rpoA-U (ssRNA)
RNA: AUUAUACGUGA
Consider B3, for which the Kd in series [1] (label: 5' IRDye 800CW) worked out at 0.136 µM; in series [2] (label: 5' IRDye 800CW), 0.156 µM; in series [3] (label: 5' IRDye 800CW) it was 0.182 µM; in series [4] (label: 5' IRDye 800CW), 0.261 µM; in series [5] (label: 5' IRDye 800CW), 0.194 µM.

B4: IR-rpoA-A (ssRNA)
RNA: AUUAAACGUGA
For the molecule B4, the equilibrium dissociation constant (Kd) in series [1] (label: 5' IRDye 800CW) is 0.114 µM; in series [2] (label: 5' IRDye 800CW), 0.218 µM; in series [3] (label: 5' IRDye 800CW), 0.122 µM; in series [4] (label: 5' IRDye 800CW) it was 0.155 µM; in series [5] (label: 5' IRDye 800CW) it was 0.107 µM.
